In the test the target is SARS-CoV-2 (spike protein) antigen of the Euroimmun IgG detection kit. As to the kind of experiment: Euroimmun IgG ELISA kit, antibody at 50 µg/ml [cont'd]. A general note: In an ELISA, binding on a coated surface is turned into a signal by an enzyme label.

B1: MnC4t1p1_A10 (antibody, V domains shown)
VH: QLQVQESGPGLVKPSETLSLTCTVSGASISSNHYFWGWIRQPPGKGLAWIGSMHYSGSTYYNPSLKSRVTISVDTSKNQLSLKLSSVTAADTAVYYCARGVNYYDRNGYYRNDGFDIRGQGTMVTVSS
VL: DIQMTQSPSSLSASVGDRVTITCRASQGIRNDLGWYEQKPGKAPKRLIYAASSLESGVPSRFSGSGSGTEFTLTISSLQPEDFATYYCLQHNTYPFTFGPGTRVDIK
Take B1: the IgG detection test came out at 4.87.

B2: MnC4t2p1_D10 (antibody, V domains shown)
VH: QLQVQESGPGLVKPSETLSLTCTVSGASISSNHYFWGWIRQPPGKGLAWIGSMHYSGSTYYNPSLKSRVTISVDTSKNQLSLKLSSVTAADTAVYYCARGVNYYDRNGYYRNDGFDIRGQGTMVTVSS
VL: DIQMTQSPSSLSASVGDRVTITCRASQGIRNDLGWYEQKPGKAPKRLIYAASSLESGVPSRFSGSGSGTEFTLTISSLQPEDFATYYCLQHNTYPFTFGPGTRVDIK
In the case of B2, the IgG detection test came out at 5.3.

B3: MnC4t2p1_F5 (antibody, V domains shown)
VH: QLQVQESGPGLVKPSETLSLTCTVSGASISSNHYFWGWIRQPPGKGLAWIGSMHYSGSTYYNPSLKSRVTISVDTSKNQLSLKLSSVTAADTAVYYCARGVNYYDRNGYYRNDGFDIRGQGTMVTVSS
VL: DIQMTQSPSSLSASVGDRVTITCRASQGIRNDLGWYEQKPGKAPKRLIYAASSLESGVPSRFSGSGSGTEFTLTISSLQPEDFATYYCLQHNTYPFTFGPGTRVDIK
For the molecule B3, the IgG detection test came to 5.19.

The record behind these values is patent US20210371503A1.
